Results on 1 substance are retold here after article PMC3760834.

The target in the test is GST-Cx46G143R loop fusion protein (intracellular loop domain of human Cx46 with the cataract mutation G143R) (human). Kind of test: pull-down; GST, GST-Cx46 loop or GST-Cx46G143R loop on glutathione beads incubated with crude membrane proteins of HeLa cells expressing Cx46, rotating platform, 4°C overnight; eluted proteins blotted with anti-Cx46 and anti-GST.

Substance “human connexin 46 (Cx46), wild type (from UniProt Q9Y6H8 1-435) (natural protein)” had a fold of Cx46 pulled down against the wild-type GST-Cx46 loop greater than 2 fold.
